The source of these data is US20110091994A1, “Methods for Screening Compounds for Treating and/or Preventing an Hepatitis C Virus Infection” (priority 2008, published 2011).

In assay [1] the target is T1, HCV ORFs (Gal4-DB fusions) (Hepatitis C virus genotype 1b, UniProt Q9WMX2).
T1 construct: expressed in transfected cells; host or cells: Saccharomyces cerevisiae MAV203 (IMAP1) / AH109 (IMAP2)
The assay is classed as binding, HCV genotype 1b, isolate con1. Conditions: human protein as prey.

In assay [2] the test system is HCV ORFs (Gal4-DB fusions). The assay is classed as binding, HCV genotype 1b, isolate con1. Conditions: human protein listed by gene symbol; the value names the HCV protein it interacts with.
Assay [3] addresses T2, GST-tagged viral proteins (Hepatitis C virus genotype 1b, UniProt Q9WMX2).
T2 construct: expressed in transfected cells; host or cells: HEK-293T
In words: Validation by co-affinity purification (CoAP). Also noted: key: +: IMAP validation; −: not validated; NA: non assayable due to default of protein expression or to cellular protein directly interacting with GST. The assay is classed as binding, HCV genotype 1b, isolate con1. The procedure, abridged: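 HEK-293T cells were co-transfected with N-terminal GST-tagged HCV bait and 3xFLAG-tagged human prey ORFs, with GST alone as control. Two days later, lysates (0.5% NP-40, pH 8.0) were pulled down on glutathione beads. Preys were detected by anti-FLAG immunoblot after SDS-PAGE.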

Another assay addresses T3, HCV proteins (Hepatitis C virus genotype 1b, UniProt Q9WMX2).
T3 construct: expressed in transfected cells
Briefly: Validation by Y2H pairwise matrices.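 Further: yeast two-hybrid pairwise tests of interactions first found in Y2H screens of HCV bait proteins against human cDNA libraries.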 The assay is classed as binding. Conditions: validation of interaction with HCV protein NS3.

Where [4] appears, read: validation of interaction with HCV protein NS3.

Where two headings read alike, the source gives them in different places.
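Wherever IMAP Y2H IMAP1 (number of IST) is given: yeast two-hybrid screens using HCV genotype 1b proteins fused to Gal4-DB as baits against prey cDNA libraries from human spleen and foetal brain, IMAP1 via transformation and IMAP2 via mating.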
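Wherever IMAP Y2H IMAP2 (number of IST) is given: yeast two-hybrid screens using HCV genotype 1b proteins fused to Gal4-DB as baits against prey cDNA libraries from human spleen and foetal brain, IMAP1 via transformation and IMAP2 via mating.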
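Wherever Interaction with viral protein is given: yeast two-hybrid screens using HCV genotype 1b proteins fused to Gal4-DB as baits against prey cDNA libraries from human spleen and foetal brain, IMAP1 via transformation and IMAP2 via mating.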

T3 sequence (Q9WMX2 1027-1657): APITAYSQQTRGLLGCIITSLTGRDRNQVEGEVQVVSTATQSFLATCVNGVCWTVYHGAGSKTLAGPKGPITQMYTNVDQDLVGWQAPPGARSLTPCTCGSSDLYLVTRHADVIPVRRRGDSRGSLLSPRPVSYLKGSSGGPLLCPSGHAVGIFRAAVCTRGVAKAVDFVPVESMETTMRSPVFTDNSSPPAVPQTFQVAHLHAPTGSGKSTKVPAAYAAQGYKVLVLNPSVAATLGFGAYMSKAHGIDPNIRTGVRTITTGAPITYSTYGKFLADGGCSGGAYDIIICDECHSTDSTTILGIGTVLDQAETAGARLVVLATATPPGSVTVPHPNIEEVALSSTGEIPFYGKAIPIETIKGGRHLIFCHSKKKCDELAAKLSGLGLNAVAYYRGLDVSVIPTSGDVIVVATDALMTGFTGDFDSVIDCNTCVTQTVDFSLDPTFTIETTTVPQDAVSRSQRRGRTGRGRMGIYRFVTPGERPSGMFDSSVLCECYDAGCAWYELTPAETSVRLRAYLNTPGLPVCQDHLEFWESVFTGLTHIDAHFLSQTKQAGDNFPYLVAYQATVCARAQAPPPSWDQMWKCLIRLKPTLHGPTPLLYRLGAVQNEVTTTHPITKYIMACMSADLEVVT

B1: FRS3 (protein, UniProt O43559 2-492, looked up)
Fibroblast growth factor …: GSCCSCLNRDSVPDNHPTKFKVTNVDDEGVELGSGVMELTQSELVLHLHRREAVRWPYLCLRRYGYDSNLFSFESGRRCQTGQGIFAFKCSRAEEIFNLLQDLMQCNSINVMEEPVIITRNSHPAELDLPRAPQPPNALGYTVSSFSNGCPGEGPRFSAPRRLSTSSLRHPSLGEESTHALIAPDEQSHTYVNTPASEDDHRRGRHCLQPLPEGQAPFLPQARGPDQRDPQVFLQPGQVKFVLGPTPARRHMVKCQGLCPSLHDPPHHNNNNEAPSECPAQPKCTYENVTGGLWRGAGWRLSPEEPGWNGLAHRRAALLHYENLPPLPPVWESQAQQLGGEAGDDGDSRDGLTPSSNGFPDGEEDETPLQKPTSTRAAIRSHGSFPVPLTRRRGSPRVFNFDFRRPGPEPPRQLNYIQVELKGWGGDRPKGPQNPSSPQAPMPTTHPARSSDSYAVIDLKKTVAMSNLQRALPRDDGTARKTRHNSTDLPL
With B1, in assay [1] (HCV protein NS3 as bait), the “IMAP Y2H IMAP1 (number of IST)” value came to 2 and the “IMAP Y2H IMAP2 (number of IST)” value worked out at 1. For the same molecule, the “Interaction with viral protein” value in assay [2] was “NS3”. Further, the CoAP entry in assay [3] (setting [4]) was “+”. Moreover, in the assay with HCV proteins, the Y2H matrices entry is on record as “+”.

B2: TXNDC11 (protein, UniProt Q6PKC3 1-985, looked up)
Thioredoxin domain-containing …: MSECGGRGGGSSSSEDAEDEGGGGGGPAGSDCLSSSPTLATASSAGRLRRGLRGAFLMARQRPELLCGAVALGCALLLALKFTCSRAKDVIIPAKPPVSFFSLRSPVLDLFQGQLDYAEYVRRDSEVVLLFFYAPWCGQSIAARAEIEQAASRLSDQVLFVAINCWWNQGKCRKQKHFFYFPVIYLYHRSFGPIEYKGPMSAVYIEKFVRRVMKPLLYIPSQSELLDFLSNYEPGVLGYFEFSGSPQPPGYLTFFTSALHSLKKALESTSSPRALVSFTGEWHLETKIYVLDYLGTVRFGVITNKHLAKLVSLVHSGSVYLHRHFNTSLVFPREVLNYTAENICKWALENQETLFRWLRPHGGKSLLLNNELKKGPALFLFIPFNPLAESHPLIDEITEVALEYNNCHGDQVVERLLQHLRRVDAPVLESLALEVPAQLPDPPTITASPCCNTVVLPQWHSFSRTHNVCELCVNQTSGGMKPSSVSVPQCSFFEMAAALDSFYLKEQTFYHVASDSIECSNFLTSYSPFSYYTACCRTISRGVSGFIDSEQGVFEAPTVAFSSLEKKCEVDAPSSVPHIEENRYLFPEVDMTSTNFTGLSCRTNKTLNIYLLDSNLFWLYAERLGAPSSTQVKEFAAIVDVKEESHYILDPKQALMKLTLESFIQNFSVLYSPLKRHLIGSGSAQFPSQHLITEVTTDTFWEVVLQKQDVLLLYYAPWCGFCPSLNHIFIQLARNLPMDTFTVARIDVSQNDLPWEFMVDRLPTVLFFPCNRKDLSVKYPEDVPITLPNLLRFILHHSDPASSPQNVANSPTKECLQSEAVLQRGHISHLEREIQKLRAEISSLQRAQVQVESQLSSARRDEHRLRQQQRALEEQHSLLHAHSEQLQALYEQKTRELQELARKLQELADASENLLTENTWLKILVATMERKLEGRDGAESLAAQREVHPKQPEPSATPQLPGSSPPPANVSATLVSERNKENRTD
Regarding B2, the “IMAP Y2H IMAP1 (number of IST)” value in assay [1] (HCV protein NS3 as bait) worked out at 2. In addition, the “IMAP Y2H IMAP2 (number of IST)” value in assay [1] (HCV protein NS5A as bait) worked out at 1. For the same molecule, the “Interaction with viral protein” value in assay [2] is reported as “NS3”. For the same molecule, the CoAP entry in assay [3] (interaction with HCV protein NS5A) is listed as “+”. Besides, the Y2H matrices result in the assay with HCV proteins is recorded as “+”.

B3: RAI14 (protein, UniProt Q9P0K7 1-980, looked up)
Ankycorbin: MKSLKAKFRKSDTNEWNKNDDRLLQAVENGDAEKVASLLGKKGASATKHDSEGKTAFHLAAAKGHVECLRVMITHGVDVTAQDTTGHSALHLAAKNSHHECIRKLLQSKCPAESVDSSGKTALHYAAAQGCLQAVQILCEHKSPINLKDLDGNIPLLLAVQNGHSEICHFLLDHGADVNSRNKSGRTALMLACEIGSSNAVEALIKKGADLNLVDSLGYNALHYSKLSENAGIQSLLLSKISQDADLKTPTKPKQHDQVSKISSERSGTPKKRKAPPPPISPTQLSDVSSPRSITSTPLSGKESVFFAEPPFKAEISSIRENKDRLSDSTTGADSLLDISSEADQQDLLSLLQAKVASLTLHNKELQDKLQAKSPKEAEADLSFDSYHSTQTDLGPSLGKPGETSPPDSKSSPSVLIHSLGKSTTDNDVRIQQLQEILQDLQKRLESSEAERKQLQVELQSRRAELVCLNNTEISENSSDLSQKLKETQSKYEEAMKEVLSVQKQMKLGLVSPESMDNYSHFHELRVTEEEINVLKQDLQNALEESERNKEKVRELEEKLVEREKGTVIKPPVEEYEEMKSSYCSVIENMNKEKAFLFEKYQEAQEEIMKLKDTLKSQMTQEASDEAEDMKEAMNRMIDELNKQVSELSQLYKEAQAELEDYRKRKSLEDVTAEYIHKAEHEKLMQLTNVSRAKAEDALSEMKSQYSKVLNELTQLKQLVDAQKENSVSITEHLQVITTLRTAAKEMEEKISNLKEHLASKEVEVAKLEKQLLEEKAAMTDAMVPRSSYEKLQSSLESEVSVLASKLKESVKEKEKVHSEVVQIRSEVSQVKREKENIQTLLKSKEQEVNELLQKFQQAQEELAEMKRYAESSSKLEEDKDKKINEMSKEVTKLKEALNSLSQLSYSTSSSKRQSQQLEALQQQVKQLQNQLAECKKQHQEVISVYRMHLLYAVQGQMDEDVQKVLKQILTMCKNQSQKK
As to B3, in assay [1] (HCV protein NS3 as bait), the “IMAP Y2H IMAP1 (number of IST)” value stood at 1 and the “IMAP Y2H IMAP2 (number of IST)” value came to 2. Further, the “Interaction with viral protein” value in assay [2] is on record as “NS3”. Also, in assay [3] (setting [4]), the CoAP entry is on record as “−”. In addition, in the assay with HCV proteins, the Y2H matrices result was “+”.

B4: EIF4ENIF1 (protein, UniProt Q9NRA8 1-985, looked up)
Eukaryotic translation …: MDRRSMGETESGDAFLDLKKPPASKCPHRYTKEELLDIKELPHSKQRPSCLSEKYDSDGVWDPEKWHASLYPASGRSSPVESLKKELDTDRPSLVRRIVDPRERVKEDDLDVVLSPQRRSFGGGCHVTAAVSSRRSGSPLEKDSDGLRLLGGRRIGSGRIISARTFEKDHRLSDKDLRDLRDRDRERDFKDKRFRREFGDSKRVFGERRRNDSYTEEEPEWFSAGPTSQSETIELTGFDDKILEEDHKGRKRTRRRTASVKEGIVECNGGVAEEDEVEVILAQEPAADQEVPRDAVLPEQSPGDFDFNEFFNLDKVPCLASMIEDVLGEGSVSASRFSRWFSNPSRSGSRSSSLGSTPHEELERLAGLEQAILSPGQNSGNYFAPIPLEDHAENKVDILEMLQKAKVDLKPLLSSLSANKEKLKESSHSGVVLSVEEVEAGLKGLKVDQQVKNSTPFMAEHLEETLSAVTNNRQLKKDGDMTAFNKLVSTMKASGTLPSQPKVSRNLESHLMSPAEIPGQPVPKNILQELLGQPVQRPASSNLLSGLMGSLEPTTSLLGQRAPSPPLSQVFQTRAASADYLRPRIPSPIGFTPGPQQLLGDPFQGMRKPMSPITAQMSQLELQQAALEGLALPHDLAVQAANFYQPGFGKPQVDRTRDGFRNRQQRVTKSPAPVHRGNSSSPAPAASITSMLSPSFTPTSVIRKMYESKEKSKEEPASGKAALGDSKEDTQKASEENLLSSSSVPSADRDSSPTTNSKLSALQRSSCSTPLSQANRYTKEQDYRPKATGRKTPTLASPVPTTPFLRPVHQVPLVPHVPMVRPAHQLHPGLVQRMLAQGVHPQHLPSLLQTGVLPPGMDLSHLQGISGPILGQPFYPLPAASHPLLNPRPGTPLHLAMVQQQLQRSVLHPPGSGSHAAAVSVQTTPQNVPSRSGLPHMHSQLEHRPSQRSSSPVGLAKWFGSDVLQQPLPSMPAKVISVDELEYRQ
Take B4: in assay [1] (HCV protein NS3 as bait), the “IMAP Y2H IMAP1 (number of IST)” value turned out to be 2 and the “IMAP Y2H IMAP2 (number of IST)” value worked out at 3. Also, in assay [2], the “Interaction with viral protein” value is given as “NS3”. The CoAP entry in assay [3] (setting [4]) is recorded as “+”. In addition, the Y2H matrices result in the assay with HCV proteins is reported as “+”.
